Results: patent publication US20260015631

System: CyCAST TnsD (with TnsAB, TnsC) (Cyanothece sp. PCC 7425)
Assay: cell_activity
Settings: without TniQ; 0.0006% with TniQ; E. coli

Q: Which activity does the source give for pTarget with tRNA-Leu here?
A: Its activity is 0.008 % insertion.
